The target in assay [1] is HIV-1 C.DU123 Env (HIV-1).
Assay [2] concerns the target HIV-1 B.AD8 Env on Aldrithiol-2 inactivated virions (HIV-1).
The target of assay [3] is HIV-1 B.MN Env on Aldrithiol-2 inactivated virions (HIV-1).
Assay [4] concerns the target HIV-1 B.ADA Env on Aldrithiol-2 inactivated virions (HIV-1).
The target of assay [5] is Env of HIV-BaL.LucR.T2A.ecto/hPBMC (HIV-1).

As for Bavituximab (antibody), the IC50, neutralization of HIV-1 Env pseudovirus in TZM-bl cells (with HIV-1 B.6535 Env (HIV-1); in assay [1]; with HIV-1 B.PVO Env (HIV-1)) was greater than 50 µg/mL each time.

Consider 2F5 (antibody), for which the IC90, inhibition of fusion (syncytia) induced by Aldrithiol-2 inactivated HIV-1 in SUP-T1 cells was 3.4 µg/mL in assay [2], less than 1.2 µg/mL in assay [3] and less than 1.2 µg/mL in assay [4].

The molecule IgG1b12 (antibody) came in with a mean IC80, inhibition of HIV-1 infection of PBMC from 75 donors in assay [5] of 9.2 µg/mL.

In assay [5], 4E10 (antibody) displayed a mean IC80, inhibition of HIV-1 infection of PBMC from 75 donors of 20.4 µg/mL. Also, the IC90, inhibition of fusion (syncytia) induced by Aldrithiol-2 inactivated HIV-1 in SUP-T1 cells in assay [2] is 10 µg/mL; in assay [3], less than 1.2 µg/mL; in assay [4], less than 1.2 µg/mL. Besides, the IC50, neutralization of HIV-1 Env pseudovirus in TZM-bl cells in the assay with HIV-1 B.6535 Env (HIV-1) is less than 2 µg/mL; in assay [1] it was less than 2 µg/mL; with HIV-1 B.PVO Env (HIV-1), 2.2 µg/mL.

B1: mAb 11.31 (PGN 632) (antibody, V domains shown)
VH: QVQLQESGPGLVKPSGTLSLTCAVSGGSISSSNWWSWVRQPPGKGLEWIGEIYHSGSTNYNPSLKSRVTISVDKSKNQFSLKLSSVTAADTAVYYCARSRFRSWLVKRRYVYFDYWGQGTLVTVSS
VL: SSELSQDPAVSVALGQTVRITCQGDSLRSYYASWYQQKPGQAPVLVIYGKNNRPSGIPDRFSGSSSGNTASLTITGAQAEDEADYYCNSRDSSGNVVFGGGTKVTVL
In the case of B1, the IC50, neutralization of HIV-1 Env pseudovirus in TZM-bl cells (in the assay with HIV-1 B.6535 Env (HIV-1); in assay [1]; in the assay with HIV-1 B.PVO Env (HIV-1)) was greater than 50 µg/mL each time.

These data come from US20110318360A1.
